This experiment has as its target S. epidermidis Csm3 (SeCsm3) in the Cas10–Csm effector complex (S. epidermidis RP62a). In words: cryo-EM structure.

For “S. epidermidis Csm3 (SeCsm3) in the Cas10–Csm effector complex (natural protein)”, the stoichiometry N (as a rule, a count of units in the complex or per binding partner) was determined as 5.

The values above are taken from paper PMC6468305.
